The target of data set [1] is T1, VBP-C/EBP chimera (VBP basic region, C/EBP leucine zipper) (Gallus gallus / Rattus norvegicus?).
T1 chain: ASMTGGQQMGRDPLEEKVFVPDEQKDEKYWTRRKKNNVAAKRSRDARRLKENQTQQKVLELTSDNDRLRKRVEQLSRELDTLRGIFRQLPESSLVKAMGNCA
Kind of data set: competition; calculated from displacement by 0-3heptad-F dominant negatives, Trp fluorescence, 25 C, 150 mM KCl, 12.5 mM phosphate pH 7.4. The conditions noted are these: chain copies: 2 (stated). The procedure: FIG. 14A: 3heptad-F inhibits C/EBP DNA binding. […] Protein was diluted four-fold in the successive lanes. […] FIG. 14B: Displacement of VBP-C/EBP from DNA by five dominant negatives (DNs) assayed by fluorescence. Fluorescence of a single tryptophan located in the basic region of VBP-C/EBP increased upon DNA binding (minutes 5–10). The addition of 1.1 molar equivalents of the F zipper or of the four different acidic extension caused a decrease in fluorescence. After 20 minutes, 10 more molar equivalents were added, causing an additional displacement of VBP-C/EBP from the DNA. 4heptad-F, shown in bold, causes the most dramatic displacement of VBP:C/EBP. […] This is not observed for the other four mixtures which return to the VBP-C/EBP-only baseline.

Data set [2] has as its target C/EBPalpha (UniProt P05554 P05554:1-358). Kind of data set: cell_activity; CAT transactivation in HepG2; completely inhibited by 3heptad-F. The conditions noted are these: tags: N-terminal FLAG; chain copies: 2 (inferred). An excerpt: Human hepatoma cells (HepG2) were transiently transfected with three plasmids, a chloramphenicol acetyl transferase (CAT) expression plasmid driven by a single C/EBP cis element, the C/EBP transactivator, and different DNs. The histogram presents the extent of transactivation observed in the presence of different combinations of transactivator and dominant-negatives. In the absence of any DN, expressed C/EBP transactivated a single C/EBP site approximately 10 fold. […] This protein was able to transactivate a C/EBP containing promoter and was not inhibited by 3heptad-F.
In these experiments, 10 μg of reporter plasmid, 0.3 μg of transactivator, and 5 μg of DN were added to each transient transfection. […] Sheared salmon sperm DNA was added to bring the DNA concentrations to 20 μg. Calcium phosphate transfections were performed following the manufacturer's instructions (Gibco).

B1: 28 bp C/EBP site probe (dsDNA)
DNA 1: GTCAGTCAGATTGCGCAATATCGGTCAG
DNA 2: CTGACCGATATTGCGCAATCTGACTGAC
Turning to B1, the Kd in data set [1] was 0.1 nM.

B2: C/EBP consensus site in CAT reporter promoter (dsDNA)
DNA 1: ATTGCGCAAT
DNA 2: ATTGCGCAAT
For the molecule B2, the activity in data set [2] was approximately 10 fold.

The values above are taken from patent publication US6361968, “Extension of a protein-protein interaction surface to inactive the function of a cellular protein” (The United States of America as represented by the …).
